Laboratory results reported in patent US20140287419A1, “Compositions Having Dicamba Decarboxylase Activity and Methods of Use” (priority 2013, published 2014).

B1: 25 (protein, listed as Acidovorax avenae)
chain: MAQGKIGLEEHFAIPETLQDSAGFVPGDYWKELSLRLLDIHERRLREMDENGMEMMILSLNAPAVQAIPDTKKAVEIAVRANDFLAEQVARRPDRFQAFAALPMQDPDLATRELERCMQDLGFRGALVNGFSQVGTPENVVYYDAPQYGDFWAAVERLDAPFYLHPRNPIASWAQIYQGHPWLMGPTWAFAQETAVHALRLMASGLFDRHPGLRIILGHLGEGLPYNMWRVDHRNAWVDMPKGYPAKRKLCDYFHENFYLTTSGNFRTQTLIDALLEVGADRILFSTDWPFENVDHAAHWFDDAAISEADRLKIGRTNALSLFKLPQG
B2: 22 (protein, listed as Staphylococcus epidermidis)
chain: MAKSINFEEHYVVDDIQKETMKYMSSDPNGVPMQTMLKGLEQKSGFTNADDITKHDERIKFMDEHDVEMQVLSYGNGAPSNLEGERAIELCQQANDTLAKYVNEHPDRFVGFATLPINEPQAAVEEFKRCIKELGFKGALIMGHPKNGFLDQDQYDDLFATAEALNVPIYLHPSPVQSDVYQAYYKGNYSDVTAATFACFGYGWHVDVGIHAIHLVLSGVFDRHPNLNMIIGHWGEFVPFFLERMDDILFADHLEHPISYYFKNNFYITPSGMLTKPQFDLVKAEVGVDRILYSADYPYVEPDKLGTFLDELDLTEEEKEKISYKNGAKLLGLEK
B3: 21 (protein, listed as Agrobacterium tumefaciens)
chain: MAQGKVALEEHFAIPETLQDSAGFVPGDYWKELQHRLLDIQDTRLKLMDAHGIETMILSLNAPAVQAIPDRKKAIEIARRANDVLAEECARRPDRFLAFAALPLQDPDAATQELQRCVNDLGFVGALVNGFSQEGDGQTPLYYDLPQYRPFWGEVEKLDVPFYLHPRNPLPQDSRIYDGHPWLLGPTWAFAQETAVHALRLMASGLFDAHPRLNIILGHMGEGLPYMMWRIDHRNAWVKLPPRYPAKRRFVDYFNENFHITTSGNFRTQTLIDAILEIGADRILFSTDWPFENIDHASDWFNATTIAEADRVKIGRTNARRLFKLDGR
B4: 20 (protein, listed as Legionella pneumophila)
chain: MAIVDFETHFITEACIDYLTQRQEVPKLVPDLNGAYTMCFTPDVSLFHTSALMEELLSLNEQRLAIMDQAGVTIQVLSLTTINGIDSCPGDENKSTALAREVNDQLYSAIQRHPERFKGFASISPYDVKEGVKELERAISQLGFVGWLTHSNFGQDNYLDDKTYWPLLEAAEGLNIPIYLHPNVPIMREFGKYGFALGGSALGFEFDTALCLMRMILGGVFDAFPKLKIMLGHLGETMPFLMERLDHLYRIPDLKAYRPSIQRIPSEVLRQNVYITTSGRFFVPALRYVLEVMGEDRVLFASDYPMESLLDATRFIQDSDLSNQTKQKIFSINAKNLNLI
B5: 23 (protein, listed as Aplysina aerophoba)
chain: MAIDIDARSQPGLETARRAMSRRDFLGGAAAFGITAAATTALPASTAAGEEEDLFLLGLEEHFATAELRRLNGIQFPQGTPRFDINDVGAGRIADMDAAGIDIQVLSALTPGAQNLPGAEGVAYARRLNSWVAHEVIPAYPGRFRAFATLPLSEPQAAADELEYAVRELGFLGCMTYGAVDGKFLDHADFVPVLARAETLDVPIYIHPNWASPQVMDTYYNGLGNEWVSRVLSGAGYGWHQEVALQCLRMIASGVFDRFPRLQIIVGHMGEGLPFFYWRFGDDLARITADTLEKPVQQYFHDNFWITTSAFFRDELLRLVLSVMGEDRVMFAVDYPFVSNKVGADWFRAVDLPRNVKEKIAHKNAERLLKIGPF
B6: 24 (protein)
chain: MALGKVVLEEAYERPNMKEKSNHEAGLYIAPNDRPRYMRQINDINQERLKLADAHGVGYTIISLTVPGIQGIFDKTEAERVATETNNWAAEQIKNHRDRLGAFACLSMHDPAQAANELRRCVQELGFHGALLCSFQHAGPDGETYLFYDQPKYDVFWKALTELDVPLYIHPAAPTGSILERLYAQRPALIGPPLSFANDVSLHTLGIISNGVFDRFPNLKIIIGHLGEHIPFDFWRIDHWFRDVKKPIADEEGRVMAQKSLYHYFKHNIWLTTSGHFSTPTLKYVVNEIGVDRVLFSVDYPYETTESGCNWWDHDKDAIVEAVGGVDNYYAIGRENAKKLLRLDKFHDSDAR
modifications: Aspergillus niger

assay: 14C assay with IPTG-induced recombinant E. coli cells (14CO2 capture from [14C]-carboxyl-labeled dicamba); conditions: IPTG-induced recombinant E. coli cells; [14C]-carboxyl-labeled dicamba; 14CO2 capture

Row | Molecule | Dicamba Decarboxylase Activity
1 | B1 | Low
2 | B2 | High
3 | B3 | High
4 | B4 | Low
5 | B5 | Low
6 | B6 | Low

same assay, conditions: dicamba decarboxylation activity of the protein of the given SEQ ID NO

Row | Molecule | Enzymatic Detection level
7 | B1 | Low
8 | B2 | High
9 | B3 | High
10 | B4 | Low
11 | B5 | Low
12 | B6 | Low
